Reference: US20220306695A1, “COMPSTATIN ANALOGUES AND THEIR MEDICAL USES” (priority 2019, published 2022)
Where two headings read alike, the source gives them in different places. Positions of bridges follow the written chain, without caps; N, C: chain ends. Non-standard residues stand in square brackets, D forms with d. β3hI = CC[C@H](C)[C@H](N)CC(=O)O; Nle = CCCC[C@H](N)C(=O)O; Nva = CCC[C@H](N)C(=O)O; Sar = CNCC(=O)O

Assays:
[1] = target: T1, Human C3 (human, UniProt P01024 23-1663); experiment: cell-based or functional assay
[2] = target: T1, Human C3; experiment: cell-based or functional assay; remark: listed apart in the source
[3] = target: T1, Human C3; experiment: SPR, C3 immobilised
Method in brief: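 Human C3 amine-coupled to a CM5 chip at ~3000 RU; peptides injected multi-cycle at 5-8 concentrations for 60-120 s in Tris pH 7.4, 150 mM NaCl, 0.05% Tween20 at 25° C, dissociation up to 10 min.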

[4] = target: T1, Human C3; experiment: cell-based or functional assay; remark: listed apart in the source
[5] = target: T1, Human C3; experiment: SPR, C3 immobilised; remark: listed apart in the source
Method: Surface plasmon resonance (SPR) was used to characterize peptides with respect to their binding affinity (Kd) for C3. Human C3 (Complement tech cat #A1 13c) was immobilised on individual flow cells of CM5 sensor chips (GE Healthcare) using standard amine coupling to a density of approximately 3000 resonance units (RU) in a buffer consisting of 10 mM phosphate pH 7.4, 150 mM NaCl, 0.05% Tween20.
For interaction experiments a multi-cycle experiment approach was used and performed using either a Biacore™ T200 or Biacore™ X100 instrument (GE Healthcare) at 25° C. Peptides were injected in increasing concentration series (5-8 different concentrations) for 60-120 s at a flow rate of 30 μL/min in a buffer consisting of 10 mM Tris buffer at pH 7.4, with 150 mM NaCl and 0.05% Tween20. This was followed by a dissociation period for up to 10 min. The C3 surface was regenerated between runs by a 45 s injection of 3 M MgCl₂.
Sensorgrams were double-referenced (reference surface, blanks) prior to analysis of the kinetic profiles by globally fitting data to a 1:1 Langmuir binding model to obtain association and dissociation rates for calculation of the equilibrium dissociation constant Kd. Each peptide was tested at in at least 2 independent experiments.

T1 sequence (P01024 23-1663 limits assumed): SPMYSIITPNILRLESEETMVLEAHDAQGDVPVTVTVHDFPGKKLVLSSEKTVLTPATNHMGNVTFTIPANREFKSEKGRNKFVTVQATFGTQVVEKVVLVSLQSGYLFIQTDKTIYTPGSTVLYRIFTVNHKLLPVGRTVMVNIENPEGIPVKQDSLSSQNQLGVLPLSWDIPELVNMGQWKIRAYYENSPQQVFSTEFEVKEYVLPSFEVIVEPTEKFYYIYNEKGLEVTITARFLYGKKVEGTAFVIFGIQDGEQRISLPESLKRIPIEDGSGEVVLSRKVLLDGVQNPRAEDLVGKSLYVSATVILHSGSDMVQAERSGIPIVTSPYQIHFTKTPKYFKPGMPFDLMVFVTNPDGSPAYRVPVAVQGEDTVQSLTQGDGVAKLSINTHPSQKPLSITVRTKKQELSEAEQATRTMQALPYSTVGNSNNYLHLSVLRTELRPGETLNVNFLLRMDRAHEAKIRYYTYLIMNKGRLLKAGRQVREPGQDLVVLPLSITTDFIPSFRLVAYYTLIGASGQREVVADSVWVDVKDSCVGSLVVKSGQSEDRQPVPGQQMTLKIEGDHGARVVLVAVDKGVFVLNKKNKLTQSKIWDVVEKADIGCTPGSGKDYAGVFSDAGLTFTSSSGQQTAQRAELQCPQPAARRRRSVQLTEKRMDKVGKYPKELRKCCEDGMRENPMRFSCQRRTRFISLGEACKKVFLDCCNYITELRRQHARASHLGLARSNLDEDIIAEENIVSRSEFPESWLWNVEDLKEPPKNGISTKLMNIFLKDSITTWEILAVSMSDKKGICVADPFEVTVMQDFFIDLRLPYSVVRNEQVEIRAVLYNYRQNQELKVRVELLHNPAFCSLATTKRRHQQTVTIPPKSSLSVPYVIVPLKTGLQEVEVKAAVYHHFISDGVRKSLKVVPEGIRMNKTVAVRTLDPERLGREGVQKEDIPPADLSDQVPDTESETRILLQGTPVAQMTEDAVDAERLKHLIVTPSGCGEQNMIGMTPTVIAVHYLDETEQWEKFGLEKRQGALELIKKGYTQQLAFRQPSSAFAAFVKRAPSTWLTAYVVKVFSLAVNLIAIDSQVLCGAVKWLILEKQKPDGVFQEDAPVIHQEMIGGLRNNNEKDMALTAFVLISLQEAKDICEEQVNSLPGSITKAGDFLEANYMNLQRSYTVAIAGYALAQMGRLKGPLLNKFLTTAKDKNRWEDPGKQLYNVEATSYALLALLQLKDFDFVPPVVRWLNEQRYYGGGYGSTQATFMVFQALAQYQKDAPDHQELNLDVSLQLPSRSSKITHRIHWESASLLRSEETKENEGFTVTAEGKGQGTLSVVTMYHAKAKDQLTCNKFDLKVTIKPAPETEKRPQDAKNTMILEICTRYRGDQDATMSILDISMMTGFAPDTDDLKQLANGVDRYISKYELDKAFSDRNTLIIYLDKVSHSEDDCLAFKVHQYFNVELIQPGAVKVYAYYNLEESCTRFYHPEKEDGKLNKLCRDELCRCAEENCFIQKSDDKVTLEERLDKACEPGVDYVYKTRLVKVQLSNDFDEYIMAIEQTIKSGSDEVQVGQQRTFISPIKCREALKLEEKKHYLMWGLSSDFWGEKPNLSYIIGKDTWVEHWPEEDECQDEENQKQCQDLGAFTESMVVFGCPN

B1: Compound 28 (peptide)
peptide: Ac-EGSAICIWQDWGEHRC[Sar]E-NH2
modifications: disulfide 6-16
SMILES: CC[C@H](C)[C@H](NC(=O)[C@H](C)NC(=O)[C@H](CO)NC(=O)CNC(=O)[C@H](CCC(=O)O)NC(C)=O)C(=O)N[C@H]1CSSC[C@@H](C(=O)N(C)CC(=O)N[C@@H](CCC(=O)O)C(N)=O)NC(=O)[C@H](CCCNC(=N)N)NC(=O)[C@H](Cc2c[nH]cn2)NC(=O)[C@H](CCC(=O)O)NC(=O)CNC(=O)[C@H](Cc2c[nH]c3ccccc23)NC(=O)[C@H](CC(=O)O)NC(=O)[C@H](CCC(N)=O)NC(=O)[C@H](Cc2c[nH]c3ccccc23)NC(=O)[C@H]([C@@H](C)CC)NC1=O
CP hemolysis IC50 [1]: 0.088 µM | IC50[nM], inhibition of hemolysis [2]: < 100 nM | Kd [3]: 0.044 µM

B2: Compound 2 (peptide)
peptide: Ac-ICIWQDWGEHRCT-NH2
modifications: disulfide 2-12
SMILES: CC[C@H](C)[C@H](NC(C)=O)C(=O)N[C@H]1CSSC[C@@H](C(=O)N[C@H](C(N)=O)[C@@H](C)O)NC(=O)[C@H](CCCNC(=N)N)NC(=O)[C@H](Cc2c[nH]cn2)NC(=O)[C@H](CCC(=O)O)NC(=O)CNC(=O)[C@H](Cc2c[nH]c3ccccc23)NC(=O)[C@H](CC(=O)O)NC(=O)[C@H](CCC(N)=O)NC(=O)[C@H](Cc2c[nH]c3ccccc23)NC(=O)[C@H]([C@@H](C)CC)NC1=O
CP hemolysis IC50 [1]: 0.094 µM | IC50, CP hemolysis [4]: < 0.1 µM | IC50[nM], inhibition of hemolysis [2]: < 100 nM

B3: Compound 20 (peptide)
peptide: Ac-ICIWQDWGEHSCT-NH2
modifications: disulfide 2-12
SMILES: CC[C@H](C)[C@H](NC(C)=O)C(=O)N[C@H]1CSSC[C@@H](C(=O)N[C@H](C(N)=O)[C@@H](C)O)NC(=O)[C@H](CO)NC(=O)[C@H](Cc2c[nH]cn2)NC(=O)[C@H](CCC(=O)O)NC(=O)CNC(=O)[C@H](Cc2c[nH]c3ccccc23)NC(=O)[C@H](CC(=O)O)NC(=O)[C@H](CCC(N)=O)NC(=O)[C@H](Cc2c[nH]c3ccccc23)NC(=O)[C@H]([C@@H](C)CC)NC1=O
CP hemolysis IC50 [1]: 0.059 µM | IC50[nM], inhibition of hemolysis [2]: < 100 nM | Kd [3]: 0.037 µM

B4: Compound 21 (peptide)
peptide: Ac-ICIWQDWGEHRCS-NH2
modifications: disulfide 2-12
SMILES: CC[C@H](C)[C@H](NC(C)=O)C(=O)N[C@H]1CSSC[C@@H](C(=O)N[C@@H](CO)C(N)=O)NC(=O)[C@H](CCCNC(=N)N)NC(=O)[C@H](Cc2c[nH]cn2)NC(=O)[C@H](CCC(=O)O)NC(=O)CNC(=O)[C@H](Cc2c[nH]c3ccccc23)NC(=O)[C@H](CC(=O)O)NC(=O)[C@H](CCC(N)=O)NC(=O)[C@H](Cc2c[nH]c3ccccc23)NC(=O)[C@H]([C@@H](C)CC)NC1=O
CP hemolysis IC50 [1]: 0.077 µM | IC50[nM], inhibition of hemolysis [2]: < 100 nM

B5: Compound G (peptide)
peptide: Ac-ICVWQDWGEHRCS-NH2
modifications: disulfide 2-12
SMILES: CC[C@H](C)[C@H](NC(C)=O)C(=O)N[C@H]1CSSC[C@@H](C(=O)N[C@@H](CO)C(N)=O)NC(=O)[C@H](CCCNC(=N)N)NC(=O)[C@H](Cc2c[nH]cn2)NC(=O)[C@H](CCC(=O)O)NC(=O)CNC(=O)[C@H](Cc2c[nH]c3ccccc23)NC(=O)[C@H](CC(=O)O)NC(=O)[C@H](CCC(N)=O)NC(=O)[C@H](Cc2c[nH]c3ccccc23)NC(=O)[C@H](C(C)C)NC1=O
CP hemolysis IC50 [1]: 0.18 µM | Kd [5]: 0.16 µM

B6: Compound 3 (peptide)
peptide: Ac-ESSAICIWQDWGEHRCT-NH2
modifications: disulfide 6-16
SMILES: CC[C@H](C)[C@H](NC(=O)[C@H](C)NC(=O)[C@H](CO)NC(=O)[C@H](CO)NC(=O)[C@H](CCC(=O)O)NC(C)=O)C(=O)N[C@H]1CSSC[C@@H](C(=O)N[C@H](C(N)=O)[C@@H](C)O)NC(=O)[C@H](CCCNC(=N)N)NC(=O)[C@H](Cc2c[nH]cn2)NC(=O)[C@H](CCC(=O)O)NC(=O)CNC(=O)[C@H](Cc2c[nH]c3ccccc23)NC(=O)[C@H](CC(=O)O)NC(=O)[C@H](CCC(N)=O)NC(=O)[C@H](Cc2c[nH]c3ccccc23)NC(=O)[C@H]([C@@H](C)CC)NC1=O
CP hemolysis IC50 [1]: 0.069 µM | IC50[nM], inhibition of hemolysis [2]: < 100 nM

B7: Compound 15 (peptide)
peptide: Ac-ICIWQDWGEHRCTGAES-NH2
modifications: disulfide 2-12
SMILES: CC[C@H](C)[C@H](NC(C)=O)C(=O)N[C@H]1CSSC[C@@H](C(=O)N[C@H](C(=O)NCC(=O)N[C@@H](C)C(=O)N[C@@H](CCC(=O)O)C(=O)N[C@@H](CO)C(N)=O)[C@@H](C)O)NC(=O)[C@H](CCCNC(=N)N)NC(=O)[C@H](Cc2c[nH]cn2)NC(=O)[C@H](CCC(=O)O)NC(=O)CNC(=O)[C@H](Cc2c[nH]c3ccccc23)NC(=O)[C@H](CC(=O)O)NC(=O)[C@H](CCC(N)=O)NC(=O)[C@H](Cc2c[nH]c3ccccc23)NC(=O)[C@H]([C@@H](C)CC)NC1=O
CP hemolysis IC50 [1]: 0.047 µM | IC50[nM], inhibition of hemolysis [2]: < 100 nM

B8: Compound D (peptide)
peptide: Ac-ICVWQDWGEHRCTGAES-NH2
modifications: disulfide 2-12
SMILES: CC[C@H](C)[C@H](NC(C)=O)C(=O)N[C@H]1CSSC[C@@H](C(=O)N[C@H](C(=O)NCC(=O)N[C@@H](C)C(=O)N[C@@H](CCC(=O)O)C(=O)N[C@@H](CO)C(N)=O)[C@@H](C)O)NC(=O)[C@H](CCCNC(=N)N)NC(=O)[C@H](Cc2c[nH]cn2)NC(=O)[C@H](CCC(=O)O)NC(=O)CNC(=O)[C@H](Cc2c[nH]c3ccccc23)NC(=O)[C@H](CC(=O)O)NC(=O)[C@H](CCC(N)=O)NC(=O)[C@H](Cc2c[nH]c3ccccc23)NC(=O)[C@H](C(C)C)NC1=O
CP hemolysis IC50 [1]: 0.21 µM | Kd [5]: 0.23 µM

B9: Compound 19 (peptide)
peptide: Ac-ICIWQDWGAHSCT-NH2
modifications: disulfide 2-12
SMILES: CC[C@H](C)[C@H](NC(C)=O)C(=O)N[C@H]1CSSC[C@@H](C(=O)N[C@H](C(N)=O)[C@@H](C)O)NC(=O)[C@H](CO)NC(=O)[C@H](Cc2c[nH]cn2)NC(=O)[C@H](C)NC(=O)CNC(=O)[C@H](Cc2c[nH]c3ccccc23)NC(=O)[C@H](CC(=O)O)NC(=O)[C@H](CCC(N)=O)NC(=O)[C@H](Cc2c[nH]c3ccccc23)NC(=O)[C@H]([C@@H](C)CC)NC1=O
CP hemolysis IC50 [1]: 0.14 µM | IC50[nM], inhibition of hemolysis [2]: < 250 nM

B10: Compound 24 (peptide)
peptide: Ac-ICIWQDWGEHRCTEGE-NH2
modifications: disulfide 2-12
SMILES: CC[C@H](C)[C@H](NC(C)=O)C(=O)N[C@H]1CSSC[C@@H](C(=O)N[C@H](C(=O)N[C@@H](CCC(=O)O)C(=O)NCC(=O)N[C@@H](CCC(=O)O)C(N)=O)[C@@H](C)O)NC(=O)[C@H](CCCNC(=N)N)NC(=O)[C@H](Cc2c[nH]cn2)NC(=O)[C@H](CCC(=O)O)NC(=O)CNC(=O)[C@H](Cc2c[nH]c3ccccc23)NC(=O)[C@H](CC(=O)O)NC(=O)[C@H](CCC(N)=O)NC(=O)[C@H](Cc2c[nH]c3ccccc23)NC(=O)[C@H]([C@@H](C)CC)NC1=O
notes: also called Comp No 24
CP hemolysis IC50 [1]: 0.09 µM | IC50[nM], inhibition of hemolysis [2]: < 100 nM

B11: Ac-IC(1)XWQDWGEHRC(1)T-NH2 with Norvaline at position 3 (peptide)
peptide: Ac-IC[Nva]WQDWGEHRCT-NH2
modifications: disulfide 2-12
SMILES: CCC[C@@H]1NC(=O)[C@@H](NC(=O)[C@@H](NC(C)=O)[C@@H](C)CC)CSSC[C@@H](C(=O)N[C@H](C(N)=O)[C@@H](C)O)NC(=O)[C@H](CCCNC(=N)N)NC(=O)[C@H](Cc2c[nH]cn2)NC(=O)[C@H](CCC(=O)O)NC(=O)CNC(=O)[C@H](Cc2c[nH]c3ccccc23)NC(=O)[C@H](CC(=O)O)NC(=O)[C@H](CCC(N)=O)NC(=O)[C@H](Cc2c[nH]c3ccccc23)NC1=O
IC50, CP hemolysis [4]: > 1 µM

B12: Ac-IC(1)XWQDWGEHRC(1)T-NH2 with Norleucine at position 3 (peptide)
peptide: Ac-IC[Nle]WQDWGEHRCT-NH2
modifications: disulfide 2-12
SMILES: CCCC[C@@H]1NC(=O)[C@@H](NC(=O)[C@@H](NC(C)=O)[C@@H](C)CC)CSSC[C@@H](C(=O)N[C@H](C(N)=O)[C@@H](C)O)NC(=O)[C@H](CCCNC(=N)N)NC(=O)[C@H](Cc2c[nH]cn2)NC(=O)[C@H](CCC(=O)O)NC(=O)CNC(=O)[C@H](Cc2c[nH]c3ccccc23)NC(=O)[C@H](CC(=O)O)NC(=O)[C@H](CCC(N)=O)NC(=O)[C@H](Cc2c[nH]c3ccccc23)NC1=O
IC50, CP hemolysis [4]: 0.48 µM

Ac-IC[β3hI]WQDWGEHRCT-NH2 (disulfide 2-12) [Ac-IC(1)XWQDWGEHRC(1)T-NH2 with Beta-Homo-Isoleucine at position 3]
IC50, CP hemolysis [4]: > 10 µM
